According to patent publication US12227762B2, “Spheroid culture method for neural stem cell” (Daegu Gyeongbuk Institute of Science and Technology, priority 2019, dated 2025):

What was measured:
[1] = system: ORN differentiated from spheroid cultured progenitor cells; assay: Calcium imaging assay of ORNs under odorant stimulation; assay type: cell-based, rat; conditions: for total calcium concentration stimulated by odor: odorant mixture
Description: To facilitate comparison with in vivo ORNs, the physiological properties of ORNs were validated using calcium imaging assays. The activity of the spheroid-cultured ORN progenitor cells was evaluated by transferring them to the laminin-coated plates, and measuring the change in fluorescence intensity by stimulating ORN activity with a mixture of odorant. In addition, the total-calcium concentration and response rate stimulated by odor were analyzed based on the results of calcium imaging.
Specifically, before performing the calcium imaging assay, the coverslip substrate was combined with a magnetic chamber (Live Cell instrument, Seoul, Korea), and the medium was replaced with KREBS Ringer's buffer containing 115 mM NaCl, 5.9 mM KCl, 2.5 mM CaCl2·2H2O, 1.2 mM MgCl2, 1.2 mM NaH2PO4, 10 mM HEPES sodium salt, and 10 mM D-glucose, and it was washed with PBS. Then, the cells were stained with fluo3-AM (life technologies, Waltham, USA). Fluorescence images of calcium markers were monitored using a confocal microscope. To stimulate the ORN, three odorants of 100 µM isovaleric acid (IVA), 2-isobutyl-3-methoxypyrazine (IBMP), and citralva, which are reported to activate the major signaling pathways of the ORN, and 100 µM of their mixture were applied to the magnetic chamber using a tubing connected to a syringe. The intracellular calcium concentration was calculated from the background corrected fluorescence ratio at 506/526 nm using a two-point calibration scheme and the equation [Ca]i=Kd(F0/Fs)(R−Rmin)/(Rmax−R).
Response rates were calculated as a ratio of the number of activated cell populations to the total number of cell populations in the confocal microscopy software.
Next, to determine the physiological properties of ORNs under single […] stimulation, the changes in intracellular calcium levels of ORNs and the changes in fluorescence intensity in cells a, b and c according to […] stimulation were monitored using 100 μM IBMP, 100 μM IVA, and 100 μM citralva.

rat ORN progenitor cells = assay: Spheroid culture of ORN progenitor cells on REP-coated or laminin-coated plates (spheroid formation, diameter); assay type: cell-based
Description: For a comparison between the culture in a vessel coated with a recombinant protein (REP, TGPG[VGRGD(VGPVPG)6]20WPC) and culture in a vessel coated with laminin in whether neural stem cells are cultured into spheroids, the rat ORN progenitor cells primary cultured in Example 1-1 above were plated on REP-coated or laminin-coated cell culture plates.
Specifically, before plating the isolated ORN progenitor cells, 96-well plates (Thermo Scientific, Waltham, USA) were coated with 100 μl of 3 μM REP diluted with PBS, and they were cultured in the humidified 37° C. culture incubator containing 5% CO2 for 1 hour. The REP was prepared by the previously described method (Jeon W B, Park B H, Wei J, Park R W (2011) J Biomed Mater Res A 97 (2): 152-7). After culturing for 1 hour in the humidified incubator, the REP solution was aspirated, and 1×10^6 cells/ml of the isolated ORN progenitor cell suspension was placed and stored in the humidified incubator. MEM medium (Welgene, Gyeongsan, Republic of Korea) containing fresh 0.5% FBS (GE Healthcare lifesciences, Brussel, Belgium), 0.5% penicillin streptomycin (Thermo Fisher, Waltham, USA), kanamycin (SIGMA), and gentamicin (SIGMA) was replaced every 24 hours.
Next, in order to check the optimal conditions for spheroid formation, the diameter and shape of the spheroids were observed according to the seeding populations and the concentration of REP by measuring the diameter of the formed spheroids.

[2] = system: spheroid ORN progenitor cells; assay: qPCR of ORN developmental markers after differentiation of spheroid ORN progenitor cells on laminin-coated plate; assay type: cell-based, rat
Description: Spheroid ORN progenitor cells were differentiated and their developmental characteristics were monitored using qPCR and ICC.
Next, in order to analyze the differentiation of spheroid ORN progenitor cells in-depth, the transcriptional levels of ORN developmental markers such as ac3, omp, map2 and ncam, were analyzed by qPCR. Adenyl cyclase III (AC3), an important protein in the ORN, plays an important role in the olfactory signaling cascade. Olfactory marker protein (OMP) is also a protein found in fully matured ORNs. Microtubule associated protein 2 (MAP2) and NSE are expressed in differentiated neurons. Therefore, these markers were used as neuronal maturation markers. Neural cell adhesion molecule (NCAM) was used as a neural cell marker.

[3] = Surface properties of coated coverslips by AFM and SEM; assay type: physicochemical
Description: In order to determine effects of the REP on spheroid formation, surface properties of REP-coated coverslips were observed using atomic force microscopy (AFM) and scanning electronic microscopy (SEM).
Specifically, for AFM and SEM image observation, glass coverslips were coated with 3 μM REP and 25 μg/ml laminin. To coat the coverslip with REP, 3 μM REP solution was poured onto the coverslip and incubated at 37° C. for 1 hour. Thereafter, the coverslip was washed three times with warmed autoclaved distilled water at 37° C. and dried in a hood. To prepare a laminin-coated coverslip, 25 μg/ml laminin was diluted with autoclaved distilled water and poured over the coverslip and the coverslip was stored at 37° C. overnight. Thereafter, the coverslip was washed three times with pressurized distilled water and dried with a critical point dryer (EM CPD 300; Leica, Wetzlar, Germany). AFM (XE-150; Park Systems, Suwon, Republic of Korea) was performed in non-contact mode with a scanning speed of 0.5 Hz. Before SEM observation, the coverslip was coated with osmium (Osmium plasma coater, Vacuum Devices Inc., Mito, Japan), and SEM was performed at a chamber pressure of […].

[4] = system: spheroid ORN progenitor cells; assay: Calcein assay of cell viability of spheroid ORN progenitor cells; assay type: cell-based, rat; conditions: plate coated with 3 μM REP
Description: Since it is essential for neural stem cells to maintain cell viability while cultured into spheroids, a calcein assay was performed to evaluate the viability of ORN progenitor cells cultured into spheroids according to the cultivation time.
Specifically, calcein assay reagent (calcein red-orange, AM; Invitrogen, Carlsbad, USA) is used to evaluate cell viability. Spheroid ORN progenitor cells were washed three times with Dulbecco's phosphate-buffered saline (DPBS; Gibco® by Life Technologies™, Waltham, USA), treated with 3 μM calcein-AM solution, and cultivated at 37° C. for 30 minutes. Cell viability in each well was quantified by measuring optical density at 517 nm with a fluorescence reader (Gemini EM; Molecular Devices, San Jose, USA). The total OD517mm value was normalized to the value measured in spheroid ORN progenitor cells on the first day, and the decrease in fluorescence intensity indicates decrease in viability according to environmental conditions and cell loss according to changes of culture media.

[5] = system: spheroid ORN progenitor cells; assay: qRT-PCR of stem cell markers in spheroid ORN progenitor cells; assay type: cell-based, rat; conditions: REP-coated plates
Description: In order to evaluate whether the spheroid-cultured ORN progenitor cells maintain a stemness, mRNA levels of stem cell markers were analyzed by quantitative real-time polymerase chain reaction (qRT-PCR). SOX2, Ki67, and nestin were used as specific marker genes for neural stem cells.
Specifically, total RNA was obtained from spheroid ORN progenitors using Trizol (Trizol® Reagent; Life technologies, Waltham, USA), and cDNA was synthesized by reverse transcription. qRT-PCR was performed under conditions of 40-45 repetitions at 95° C. for 30 sec, at 60° C. for 30 sec, and at 72° C. for 30 sec using a SYBR Green PCR Master Mix Kit (QuantiTect® SYBR® Green PCR Kit; QIAGEN, Hilden, Germany) on a Rotor-Gene Q (QIAGEN, Hilden, Germany). Primers of the sequences shown in Table 1 were purchased from GenoTeck (Daejeon, Korea) and Bionics (Daejeon, Korea). The housekeeping gene cyclophilin A was used as an internal standard.

[6] = system: ORN differentiated from cryopreserved spheroid progenitor cells; assay: Cryopreservation, thawing and differentiation of spheroid ORN progenitor cells, calcium imaging; assay type: cell-based, rat; conditions: 5 day spheroids cryopreserved 35 days, thawed on laminin
Excerpt: Since the neural stem cells cultured into spheroids need to be stably preserved for a long period of time for efficient use, in order to determine whether or not the cell storage period is extended through cryopreservation, spheroid-cultured ORN progenitor cells were cryopreserved for 35 days and thawed to test their physiological properties.

[7] = day 3 spheroids, differentiated 72 hours on laminin-coated plate

In the case of COc1nccnc1CC(C)C [IBMP, 2-isobutyl-3-methoxypyrazine, reference compound], the “activation of ORN cell a (intracellular calcium fluorescence)” value ([1]; single odorant, 100 μM) is reported as “activated”.

For CC(C)CC(=O)O [IVA, isovaleric acid, reference compound], the “activation of ORN cell a (intracellular calcium fluorescence)” value ([1]; single odorant, 100 μM) was “activated”, the “activation of ORN cell b (intracellular calcium fluorescence)” value ([1]; single odorant, 100 μM) was “activated” and the “activation of ORN cell c (intracellular calcium fluorescence)” value ([1]; single odorant, 100 μM) was “activated”.

For CC(C)=CCCC(C)=CC#N [citralva, reference compound], the “activation of ORN cell a (intracellular calcium fluorescence)” value ([1]; single odorant, 100 μM) was “activated” and the “activation of ORN cell c (intracellular calcium fluorescence)” value ([1]; single odorant, 100 μM) was “activated”.

For laminin [reference compound], the “culture outcome on coated plate” value (rat ORN progenitor cells; plate coated with laminin) was “neurites outgrowth occurred and the cells were differentiated without spheroid culture” and the “expression level of nsetin” value ([2]; laminin group, days 3, 5 and 10) was “about 0.1 fold”.

B1: TGPG[VGRGD(VGVPG)6]20WPC (protein)
chain: TGPGVGRGDVGVPGVGVPGVGVPGVGVPGVGVPGVGVPGVGRGDVGVPGVGVPGVGVPGVGVPGVGVPGVGVPGVGRGDVGVPGVGVPGVGVPGVGVPGVGVPGVGVPGVGRGDVGVPGVGVPGVGVPGVGVPGVGVPGVGVPGVGRGDVGVPGVGVPGVGVPGVGVPGVGVPGVGVPGVGRGDVGVPGVGVPGVGVPGVGVPGVGVPGVGVPGVGRGDVGVPGVGVPGVGVPGVGVPGVGVPGVGVPGVGRGDVGVPGVGVPGVGVPGVGVPGVGVPGVGVPGVGRGDVGVPGVGVPGVGVPGVGVPGVGVPGVGVPGVGRGDVGVPGVGVPGVGVPGVGVPGVGVPGVGVPGVGRGDVGVPGVGVPGVGVPGVGVPGVGVPGVGVPGVGRGDVGVPGVGVPGVGVPGVGVPGVGVPGVGVPGVGRGDVGVPGVGVPGVGVPGVGVPGVGVPGVGVPGVGRGDVGVPGVGVPGVGVPGVGVPGVGVPGVGVPGVGRGDVGVPGVGVPGVGVPGVGVPGVGVPGVGVPGVGRGDVGVPGVGVPGVGVPGVGVPGVGVPGVGVPGVGRGDVGVPGVGVPGVGVPGVGVPGVGVPGVGVPGVGRGDVGVPGVGVPGVGVPGVGVPGVGVPGVGVPGVGRGDVGVPGVGVPGVGVPGVGVPGVGVPGVGVPGAAAVGRGDAVGVPGVGVPGVGVPGVGVPGVGVPGVGVPGAAWPC
modifications: TGPG[VGRGD(VGVPG)6]20WPC
notes: recombinant elastin-derived protein with VGVPG pentapeptide and RGD integrin receptor ligand, used as culture vessel coating
For B1, the spheroid diameter (rat ORN progenitor cells; 1 μM REP coating) was “approximately 20 μm”, the spheroid morphology (rat ORN progenitor cells; 1 μM REP coating) was “unstable spheroid morphology and cell aggregation” and the “mean diameter of spheroids” value (rat ORN progenitor cells; 1 μM REP coating, 24 hours after cell inoculation) was 24.2±0.7 μm. The “mean diameter of spheroids” value (rat ORN progenitor cells; 3 μM REP coating, 3rd day) was 77.5±3.3 μm, the “mean diameter of spheroids” value (rat ORN progenitor cells; 3 μM REP coating, 24 hours after cell inoculation) was 62.6±2.2 μm and the “mean diameter of spheroids” value (rat ORN progenitor cells; 5 μM REP coating, 5th day) was 69.4±3.6 μm. The “mean diameter of spheroids” value (rat ORN progenitor cells; 5 μM REP coating, 24 hours after cell inoculation) was 56.2±2.8 μm, the “time for ORN progenitor cells to aggregate to form spheroids” value (rat ORN progenitor cells; plate coated with REP) was no more than 24 h and the “height and roughness relative to laminin-coated surface” value ([3]; 3 μM REP vs 25 μg/ml laminin) was 23.8 times. The “roughness (AFM)” value ([3]; coverslip coated with 3 μM REP) was 148.3±15.9 nm, the “fluorescence intensity (cell viability) normalized to first day” value ([4]; 3rd day) was 1.05±0.03 times and the “fluorescence intensity (cell viability) normalized to first day” value ([4]; 10th day) was 0.087±0.01 times. The “normalized relative mRNA level of Ki67” value ([5]; day 3) was 8.6±0.8 fold, the “normalized relative mRNA level of SOX2” value ([5]; day 3) was 8.4±0.8 fold and the “normalized relative mRNA level of nestin” value ([5]; day 3) was 11.7±1.1 fold. The NSE expression ([5]; days 3, 5 and 10) was “approximately 0.1 fold”, the “expression level of ac3” value [2, 7] was 6.3±0.7 fold and the “expression level of map2” value [2, 7] was 8.7±0.5 fold. For the same molecule, the “expression level of nse” value [2, 7] was 9.1±0.8 fold, the “expression level of omp” value [2, 7] was 6.3±0.7 fold and the “total calcium concentration stimulated by odor” value ([1]; ORNs spheroid cultured for 3 days) was 195.7 ± 24.0 nM. For the same molecule, the “total calcium concentration stimulated by odor” value ([1]; ORNs spheroid cultured for 5 days) was 205.3 ± 24.9 nM, the “total calcium concentration stimulated by odor” value ([1]; ORNs spheroid cultured for 10 days) was 205.4 ± 22.3 nM and the “response rate (activated cells / total cells)” value ([1]; cultivation time 3 days) was 29.9±2.5%. The “response rate (activated cells / total cells)” value ([1]; cultivation time 5 days) was 27.6±3.0%, the “response rate (activated cells / total cells)” value ([1]; cultivation time 10 days) was 28.1±4.2% and the “response rate stimulated by odor, compared to day 5” value [6] was 72.3%. For the same molecule, the “total-calcium concentration stimulated by odor, compared to day 5” value [6] was 72.5%.
